Read-outs that look alike come from different tables or passages of the source.
Legend:
92TH023 gp120 [1] = target: 92TH023 gp120 (HIV-1)
MN gp120 [2] = target: MN gp120 (HIV-1)
92TH023 gp120 [3] = target: 92TH023 gp120 (HIV-1); remark: listed apart in the source
MN gp120 [4] = target: MN gp120 (HIV-1); remark: listed apart in the source
J08 C.ZM109.V1V2 [5] = target: J08 C.ZM109.V1V2 (HIV-1); experiment: SPR
1C.FD6-ZM109 = experiment: SPR
AE.A244 gD+ gp120 [6] = target: T1, AE.A244 gD+ gp120 (HIV-1); experiment: ELISA
T1 construct: domain: gp120; also called AE.A244 gp120gD+

J08 A.92RW020V1V2 = J08 A.92RW020V1V2 (HIV-1); experiment: ELISA
J08 B.HXB2/BALV1V2 = target: T2, J08 B.HXB2/BALV1V2 (HIV-1); experiment: ELISA
T2 construct: also called J08 B.HXB/BAL V1V2
T2 chain: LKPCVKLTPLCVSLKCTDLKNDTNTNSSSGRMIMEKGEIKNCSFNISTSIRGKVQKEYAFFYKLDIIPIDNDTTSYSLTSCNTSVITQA

J08 C.ZM109.V1V2 [7] = target: J08 C.ZM109.V1V2 (HIV-1); experiment: ELISA
A.Q23 V1V2 tags [8] = target: A.Q23 V1V2 tags (HIV-1); experiment: ELISA
AE.A244 gD+ gp120 [9] = target: T1, AE.A244 gD+ gp120; experiment: ELISA; remark: listed apart in the source
A.Q23 V1V2 tags [10] = target: A.Q23 V1V2 tags (HIV-1); experiment: ELISA; remark: listed apart in the source
[11] = target: T3, AE.A244 V1/V2 Tags N156QN160Q (HIV-1); experiment: ELISA
T3 chain: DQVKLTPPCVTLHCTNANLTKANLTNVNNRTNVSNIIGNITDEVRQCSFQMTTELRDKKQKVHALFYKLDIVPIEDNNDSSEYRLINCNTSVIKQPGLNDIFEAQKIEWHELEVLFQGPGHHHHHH

B. 681-7 gp140C = experiment: ELISA, OD405
D.9009SA V1V2 Tags = target: T4, D.9009SA V1V2 Tags; experiment: ELISA, OD405
T4 Env construct: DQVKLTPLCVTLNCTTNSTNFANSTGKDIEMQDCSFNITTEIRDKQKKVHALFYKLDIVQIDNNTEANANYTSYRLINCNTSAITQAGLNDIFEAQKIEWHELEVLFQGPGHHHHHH

A.9004SS V1/V2 tags = target: T5, A.9004SS V1/V2 tags; experiment: ELISA, OD405 at 10 ug/ml
T5 V1V2 tags construct: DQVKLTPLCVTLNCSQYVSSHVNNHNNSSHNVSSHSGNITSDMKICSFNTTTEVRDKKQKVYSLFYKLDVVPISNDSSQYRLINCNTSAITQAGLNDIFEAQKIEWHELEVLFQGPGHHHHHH

B.63521_V1/V2 tags = experiment: ELISA, OD405 at 10 ug/ml
B.Case A2 V1/V2 tags [12] = experiment: ELISA, OD405 at 10 ug/ml
D.9009SA V1/V2 tags = experiment: ELISA, OD405 at 10 ug/ml
A.9004SS V1V2 Tags = target: T6, A.9004SS V1V2 Tags; experiment: ELISA, OD405 at 10 ug/ml mAb
T6 Env construct: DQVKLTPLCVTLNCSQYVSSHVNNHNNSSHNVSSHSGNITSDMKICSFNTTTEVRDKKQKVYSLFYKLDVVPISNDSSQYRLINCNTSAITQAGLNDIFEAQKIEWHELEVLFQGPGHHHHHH

B.63521 gp140C = experiment: ELISA, OD405 at 10 ug/ml mAb
B.63521_V1V2 Tags = target: T7, B.63521_V1V2 Tags; experiment: ELISA, OD405 at 10 ug/ml mAb
T7 Env construct: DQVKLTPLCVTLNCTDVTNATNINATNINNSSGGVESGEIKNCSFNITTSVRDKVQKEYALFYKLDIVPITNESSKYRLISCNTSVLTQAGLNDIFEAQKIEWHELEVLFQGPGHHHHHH

B.Case A2 V1/V2 Tags [13] = target: T8, B.Case A2 V1/V2 Tags; experiment: ELISA, OD405 at 10 ug/ml mAb
T8 Env construct: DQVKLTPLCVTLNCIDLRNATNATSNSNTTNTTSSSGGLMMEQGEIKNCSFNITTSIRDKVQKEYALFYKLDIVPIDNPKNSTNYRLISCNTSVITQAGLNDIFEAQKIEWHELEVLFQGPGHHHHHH

B.HXB/BAL gp140CFI = target: T9, B.HXB/BAL gp140CFI (HIV-1, UniProt P04578 33-680); experiment: ELISA, OD405 at 10 ug/ml mAb
T9 construct: also called B.HxB/Ba gp140 CFI

B1: PG9 (antibody, V domains shown)
VH: QRLVESGGGVVQPGSSLRLSCAASGFDFSRQGMHWVRQAPGQGLEWVAFIKYDGSEKYHADSVWGRLSISRDNSKDTLYLQMNSLRVEDTATYFCVREAGGPDYRNGYNYYDFYDGYYNYHYMDVWGKGTTVTVSS
VL: QSALTQPASVSGSPGQSITISCNGTSNDVGGYESVSWYQQHPGKAPKVVIYDVSKRPSGVSNRFSGSKSGNTASLTISGLQAEDEGDYYCKSLTSTRRRVFGTGTKLTVL
notes: also called mAb PG9; bnAb PG9
- IC50 (92TH023 gp120 [1]): 0.1 to 1 µM
- IC50 (MN gp120 [2]): 0.01 to 0.1 µM
- IC50 (92TH023 gp120 [3]): 0.1 to 1 µM
- IC50 (MN gp120 [4]): 0.01 to 0.1 µM
- Kd (J08 C.ZM109.V1V2 [5]): 0.318 µM
- Kd (1C.FD6-ZM109): 4.82 µM
- EC50 (AE.A244 gD+ gp120 [6]): 0.0007 µM
- EC50 (J08 A.92RW020V1V2): 0.064 µM
- EC50 (J08 B.HXB2/BALV1V2): 0.149 µM
- EC50 (J08 C.ZM109.V1V2 [7]): 0.00023 µM
- EC50 (A.Q23 V1V2 tags [8]): 0.0149 µM
- EC50 (AE.A244 gD+ gp120 [9]): 0.0007 µM
- EC50 (A.Q23 V1V2 tags [10]): 0.0149 µM
- binding result [11]: no binding (tested: 100 ug/ml)
- binding result (B. 681-7 gp140C): no binding (tested: 10 ug/ml)
- binding result (D.9009SA V1V2 Tags): no binding (tested: 10 ug/ml)
- binding result (A.9004SS V1/V2 tags): binds
- binding result (B.63521_V1/V2 tags): binds
- binding result (B.Case A2 V1/V2 tags [12]): binds
- binding result (D.9009SA V1/V2 tags): no binding (tested: 10 ug/ml)
- binding result (A.9004SS V1V2 Tags): binds
- binding result (B.63521 gp140C): binds
- binding result (B.63521_V1V2 Tags): binds
- binding result (B.Case A2 V1/V2 Tags [13]): binds
- binding result (B.HXB/BAL gp140CFI): binds

Reference: US9988424 (DUKE UNIVERSITY, dated 2018)
